This passage reports switch fluorescence ratio results from the supplement of paper PMC10126150.

The data set has as its system ATP. Put plainly: switch fluorescence ratio, 500 uM ATP over buffer (Cy3 cluster intensity, sum of 5 cycles each) (fold (ratio)); higher = stronger signal-on switching upon ATP binding; sequences stand for … in TCGTCGGCAGCGTCAGATGTGTATAAGAGACAGTTTTTTTTTTTTTTTTTTTTTTTTT…TC. The settings on record: aptamer strand: ATP DNA aptamer (quencher-CACCTGGGGGAGTATTGCGGAGGAAGG + anchor), 100 nM annealed; ATP concentration: 500 uM. In short, it runs like this:
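Cy3-labelled switching-strand clusters on a modified Illumina MiSeq flow-cell were annealed to 100 nM quencher-labelled ATP aptamer, imaged in selection buffer, then imaged after 15 min with 500 uM ATP at 22 °C. Five buffer/ATP cycles ran, with NaOH stripping and re-annealing between them. The fluorescence ratio is summed target-cycle over summed buffer-cycle Cy3 intensity per cluster, averaged per switch-domain sequence. Clusters outside 100-1000 RFU were excluded.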

± gives the standard deviation of the averaged measurements.
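Also: ATP exposure 15 min at 22 °C before imaging.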

As for GTTTTAGCTT, the switch fluorescence ratio came to 1 ± 0.011. Consider GTTTTAGTGG, for which the switch fluorescence ratio is 0.9867 ± 0.0089. The figure for GTTTTATGTA is 1.025 ± 0.0069. Regarding GTTTTATTAT, the switch fluorescence ratio was determined as 1.017 ± 0.0017. The figure for GTTTTCGGCC is 0.996 ± 0.029; for GTTTTCGGCG it is 0.981 ± 0.035. The figure for GTTTTGAACA is 0.983 ± 0.034. To GTTTTGATCA belongs 1 ± 0.016; to GTTTTGCATA, 1.01 ± 0.028. GTTTTGCCTC: the switch fluorescence ratio stood at 0.984 ± 0.01. As to GTTTTGCGAA, the switch fluorescence ratio came out at 0.9957 ± 0.0086. To GTTTTGGCTT belongs 0.983 ± 0.021. To GTTTTGGGTG belongs 1.09 ± 0.058; to GTTTTGGGTT, 0.977 ± 0.017; to GTTTTGGTAT, 1.01 ± 0.0052.

For GTTTTGGTG, the switch fluorescence ratio was 1.08 ± 0.12. The figure for GTTTTGGTGG is 0.998 ± 0.029; for GTTTTGGTTA it is 1.01 ± 0.014. The figure for GTTTTGTTGA is 1.02 ± 0.021.

GTTTTGTTTT: the switch fluorescence ratio worked out at 0.9758 ± 0.0063.

In the case of GTTTTTAAGA, the switch fluorescence ratio is 1.03 ± 0.022.

In the case of GTTTTTAGAC, the switch fluorescence ratio was determined as 1.03 ± 0.014. On to GTTTTTAGT, for which the switch fluorescence ratio came out at 1.006 ± 0.0027. GTTTTTCCTT: the switch fluorescence ratio was 0.998 ± 0.022.

On to GTTTTTCGGT, for which the switch fluorescence ratio came out at 0.981 ± 0.026. To GTTTTTG belongs 0.984 ± 0.031. On to GTTTTTGAAA, for which the switch fluorescence ratio amounted to 0.982 ± 0.037.

As for GTTTTTGGTG, the switch fluorescence ratio is 1 ± 0.018. The figure for GTTTTTTAAT is 1.015 ± 0.0061; for GTTTTTTCTT it is 0.971 ± 0.051. To GTTTTTTGAA belongs 0.9764 ± 0.0021; to GTTTTTTGCC, 1 ± 0.034; to GTTTTTTGTA, 0.994 ± 0.022. To GTTTTTTTTA belongs 0.989 ± 0.037.

As to TAAAAAACCT, the switch fluorescence ratio came to 1.57 ± 0.39. Regarding TAAAAAATAC, the switch fluorescence ratio came to 1.67 ± 0.74.

In the case of TAAAAAGTGG, the switch fluorescence ratio amounted to 0.976 ± 0.038.

On to TAAAAAGTTT, for which the switch fluorescence ratio was determined as 0.997 ± 0.03. To TAAAAATGTT belongs 0.988 ± 0.021. The figure for TAAAACCCGC is 1.05 ± 0.032. As for TAAAACCGGT, the switch fluorescence ratio came out at 1.02 ± 0.018.

TAAAAGAAGA: the switch fluorescence ratio stood at 0.962 ± 0.016.

Regarding TAAAAGACCG, the switch fluorescence ratio came out at 1.077 ± 0.007. To TAAAAGACGG belongs 1.08 ± 0.056; to TAAAAGCCTT, 1.06 ± 0.043. To TAAAAGCTTT belongs 1.02 ± 0.029; to TAAAAGGACC, 1.09 ± 0.023. The figure for TAAAAGGGAT is 1.01 ± 0.023; for TAAAAGGTTG it is 0.989 ± 0.033; for TAAAAGGTTT it is 1 ± 0.032. For TAAAAGTATA, the switch fluorescence ratio came out at 0.985 ± 0.018.

Turning to TAAAAGTTTT, the switch fluorescence ratio was found to be 1.01 ± 0.011.

Consider TAAAATAAAG, for which the switch fluorescence ratio is 0.993 ± 0.033. To TAAAATACTT belongs 1.11 ± 0.16; to TAAAATATTT, 1.05 ± 0.069. The figure for TAAAATCAGT is 0.992 ± 0.046.

Take TAAAATGCGT: the switch fluorescence ratio came to 0.99954 ± 0.00034.

Regarding TAAAATGTGA, the switch fluorescence ratio came to 0.963 ± 0.021. In the case of TAAAATTATA, the switch fluorescence ratio stood at 1.02 ± 0.021. To TAAAATTTAG belongs 1 ± 0.04; to TAAAATTTAT, 0.994 ± 0.028. To TAAAATTTGT belongs 1.01 ± 0.05; to TAAACCGCGG, 1.01 ± 0.059. To TAAACGGGGA belongs 0.986 ± 0.057; to TAAACGGTCA, 1.07 ± 0.022; to TAAAGAAAAG, 0.988 ± 0.011. For TAAAGAAGAG, the switch fluorescence ratio was found to be 0.977 ± 0.03.
